Values quoted from earlier work as cited in PMC3437440.

Target: IgG1 Fc Fc (Homo sapiens) [IgG part: P01857]

Chain of FcγRIIIa (Val158 variant) (P08637 17-254, change not shown): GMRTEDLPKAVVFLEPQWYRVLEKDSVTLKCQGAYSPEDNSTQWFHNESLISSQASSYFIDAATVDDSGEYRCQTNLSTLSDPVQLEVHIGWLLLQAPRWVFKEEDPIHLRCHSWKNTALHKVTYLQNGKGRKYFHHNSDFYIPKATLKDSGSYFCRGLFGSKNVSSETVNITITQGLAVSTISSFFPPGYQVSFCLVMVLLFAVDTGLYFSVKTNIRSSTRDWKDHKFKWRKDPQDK

In the case of “FcγRIIIa (Val158 variant) (from UniProt P08637)”, the Kd is listed as 100 nM.
